Consider three molecules from paper PMC9117268, “HDLBP binds ER-targeted mRNAs by multivalent interactions to promote protein synthesis of transmembrane and secreted proteins”.

For series [1], the target named is T1, HDLBP full-length (FL), Vigilin (Homo sapiens, UniProt Q00341 1-1268). Kind of series: fluorescence anisotropy; 20 mM Tris pH 7.5, 60 mM KCl, 1 mM EDTA, 10% glycerol, 1 ng/ul tRNA, 1 ng/ul heparin, 0.4 U/ul RNasin, 200 ng/ul BSA; 10 nM RNA probe; 20 min on ice. To be noted: protein: recombinant; purification section says GST removed by TEV; label: 5' fluorescein. (In general: In fluorescence polarisation assays a small probe gives low polarisation when free and higher when bound to something large.)

The target in series [2] is T1, HDLBP full-length (FL), Vigilin. The series is described as above. The settings on record: protein: recombinant; purification section says GST removed by TEV; label: 5' fluorescein. The source holds these as a separate data set.

T1 sequence (Q00341 whole entry): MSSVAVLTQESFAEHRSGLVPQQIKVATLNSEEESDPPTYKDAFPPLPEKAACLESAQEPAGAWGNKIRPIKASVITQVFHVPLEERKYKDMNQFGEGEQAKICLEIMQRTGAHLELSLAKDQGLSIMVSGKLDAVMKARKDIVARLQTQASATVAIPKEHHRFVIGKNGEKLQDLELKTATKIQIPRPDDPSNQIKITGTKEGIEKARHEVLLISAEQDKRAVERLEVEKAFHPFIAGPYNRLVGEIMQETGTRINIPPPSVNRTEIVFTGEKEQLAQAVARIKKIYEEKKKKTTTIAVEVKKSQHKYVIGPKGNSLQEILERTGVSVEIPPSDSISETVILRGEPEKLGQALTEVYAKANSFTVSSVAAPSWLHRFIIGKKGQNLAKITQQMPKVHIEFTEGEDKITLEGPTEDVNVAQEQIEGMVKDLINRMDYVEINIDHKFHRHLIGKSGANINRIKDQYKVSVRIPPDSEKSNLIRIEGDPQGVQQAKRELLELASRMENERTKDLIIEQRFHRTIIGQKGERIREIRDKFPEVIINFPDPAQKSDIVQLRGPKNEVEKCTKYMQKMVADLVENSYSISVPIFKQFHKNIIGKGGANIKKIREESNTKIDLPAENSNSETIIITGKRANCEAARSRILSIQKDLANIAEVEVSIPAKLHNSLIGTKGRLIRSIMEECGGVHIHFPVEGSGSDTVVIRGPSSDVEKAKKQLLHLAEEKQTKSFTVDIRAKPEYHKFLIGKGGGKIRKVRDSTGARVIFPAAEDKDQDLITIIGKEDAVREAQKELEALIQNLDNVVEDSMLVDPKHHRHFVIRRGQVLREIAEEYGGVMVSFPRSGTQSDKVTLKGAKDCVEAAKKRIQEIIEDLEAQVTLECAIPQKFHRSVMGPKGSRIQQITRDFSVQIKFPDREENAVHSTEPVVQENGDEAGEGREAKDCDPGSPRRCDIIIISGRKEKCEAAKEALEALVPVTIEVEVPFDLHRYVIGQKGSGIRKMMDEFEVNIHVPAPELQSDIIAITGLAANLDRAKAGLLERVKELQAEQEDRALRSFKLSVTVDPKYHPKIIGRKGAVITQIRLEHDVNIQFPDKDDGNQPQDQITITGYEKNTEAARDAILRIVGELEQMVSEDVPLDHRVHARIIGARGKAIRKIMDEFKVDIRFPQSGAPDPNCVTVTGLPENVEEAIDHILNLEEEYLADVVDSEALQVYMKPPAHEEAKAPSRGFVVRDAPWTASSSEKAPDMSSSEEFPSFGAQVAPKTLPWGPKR

Turning to CAACAACAACAACAACAACAACAACAACAACAA (ssRNA) [CAA_oligomer], in series [1], the binding signal is ~10 fold lower affinity than CCU/CUU oligomers.
For AUUCCCUUCCUUCAAUCACACUCAGUUUCCACC (ssRNA) [TFRC_1], the binding result in series [2] was “binds”.
The same measure, in the same setting: as for CACAGCUCUCCUAUUGAAACUUGCCCAGAUGUU (ssRNA) [TFRC_2], the entry is “binds”.
